The target of this assay is T1, hFcRn&b2M蛋白 (human, UniProt P55899 24-297; P61769 21-119, limits assumed).
T1 construct: also called hFcRn&β2M; hFcRn蛋白
Briefly: affinity measurement at pH 6.0, hFcRn&b2M as ligand, scFv as sample (method not named).

T1 sequence (P55899 24-297 limits assumed, chain 1 of 2): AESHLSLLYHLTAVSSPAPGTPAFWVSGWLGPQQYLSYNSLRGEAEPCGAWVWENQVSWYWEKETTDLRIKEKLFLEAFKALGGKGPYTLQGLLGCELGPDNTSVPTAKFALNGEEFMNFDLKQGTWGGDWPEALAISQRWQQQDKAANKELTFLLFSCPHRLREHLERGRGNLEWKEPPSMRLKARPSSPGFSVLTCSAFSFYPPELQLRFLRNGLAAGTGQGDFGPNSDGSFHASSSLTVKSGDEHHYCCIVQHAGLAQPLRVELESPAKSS
T1 sequence (P61769 21-119 limits assumed, chain 2 of 2): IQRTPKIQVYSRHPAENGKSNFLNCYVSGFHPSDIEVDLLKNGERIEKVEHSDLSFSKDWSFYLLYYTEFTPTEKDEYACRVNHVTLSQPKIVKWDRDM

B1: 单链抗体FnAb12 (scFv)
scFv: DIQLTQSPSSLSASVGDRVTLTCQATQDIDNNLNWYQQKPGKAPKLLIYDASNLETGVPSRFSGSGSGTDFTFTISDLQPEDVATYYCQQYYNLPLTFGGGTKVDIKRSRGGGGSGGGGSGGGGSLEMAEVQLVQSGAEVKKPGASVKVSCKASGYTFTSYDINWVRQATGQGLEWMGWMNPNSGNTGYAQKFQGRVTMTRNTSISTAYMELSSLRSEDTAVYYCARGVDLGDGWGQGTLVTVSS
notes: Single-chain antibody from a phage library; also called FnAb12抗体; 单克隆抗体FnAb12
In general, Kd refers to a measure of binding affinity in units of concentration. Lower therefore signals tighter binding. B1 registered an equilibrium dissociation constant (Kd) of 15 nM.

Source of the values: patent publication CN106957364A (UNIV SHANGHAI JIAOTONG, dated 2017).
